Test results reported in the supplement of paper PMC10724198.
± gives the standard deviation of the averaged measurements.

Columns and labels:
[1] = system: Saccharomyces cerevisiae; test: protein stability index of tFT-peptide fusion (C-terminal peptide) (PSI (0-1 scale)); higher = more stable (slower turnover); settings: genetic background: wild type; temperature: 30 C
[2] = system: Saccharomyces cerevisiae; test: as above
Experimental: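 MPS profiling in S. cerevisiae of the tFT-X12 degron library: putative degron peptides plus stable controls, 12 aa, fused to the C-terminus of a sfGFP-mCherry timer. Cells are FACS-sorted into 8 mCherry/sfGFP bins and deep-sequenced. PSI runs from 0 (unstable) to 1 (stable). Backgrounds are wild type, das1Δ and doa10Δ at 30 °C, and wild type, das1Δ, cdc34-1 and cdc53-1 at 37 °C; 2-3 technical replicates each.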

[3] = genetic background: cdc34-1, temperature: 37 C
[4] = genetic background: cdc53-1, temperature: 37 C
[5] = genetic background: das1 deletion, temperature: 30 C
[6] = genetic background: das1 deletion, temperature: 37 C
[7] = genetic background: doa10 deletion, temperature: 30 C
[8] = genetic background: wild type, temperature: 30 C
[9] = genetic background: wild type, temperature: 37 C
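Further: PSI is a weighted mean of sequencing reads over stability bins, variants kept only with over 10 reads, mCherry proximal and sfGFP distal, peptide attached via GGGS linker.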

Sequence	protein stability index [1]	protein stability index [2, 3]	protein stability index [2, 4]	protein stability index [2, 5]	protein stability index [2, 6]	protein stability index [2, 7]	protein stability index [2, 8]	protein stability index [2, 9]
GVGTFRLCVLLV	0.197 ± 0.02	0.233 ± 0.004	0.2473 ± 0.0021	0.273 ± 0.029	0.3697 ± 0.0013	0.156 ± 0.022	0.138 ± 0.0077	0.128 ± 0.0081
GVQVIWGWARVF	0.0923 ± 0.032	0.51 ± 0.14	0.595 ± 0.019	0.507 ± 0.042	0.654 ± 0.019	0.0987 ± 0.029	0.0712 ± 0.032	0.131 ± 0.036
GVVVWWCYFVFV	0.257 ± 0.03	0.181 ± 0.012	0.298 ± 0.034	0.183 ± 0.031	0.3631 ± 0.00064	0.161 ± 0.0072	0.161 ± 0.021	0.321 ± 0.0065
GWLFTFTCAFRV	0.479 ± 0.058	0.429 ± 0.01	0.441 ± 0.014	0.443 ± 0.027	0.482 ± 0.012	0.4984 ± 0.0014	0.428 ± 0.016	0.4672 ± 0.0025
GWRVWVQIIWGR	0.352 ± 0.028	0.316 ± 0.013	0.409 ± 0.0041	0.293 ± 0.027	0.441 ± 0.018	0.282 ± 0.0029	0.286 ± 0.02	0.40261 ± 8.5e-05
GYGAVHWWFWLF	0.31 ± 0.027	0.604 ± 0.052	0.6675 ± 0.0043	0.587 ± 0.04	0.7066 ± 0.006	0.1934 ± 0.0013	0.214 ± 0.026	0.3761 ± 0.0034
GYVCVGLVYSVA	0.337 ± 0.072	0.372 ± 0.041	0.411 ± 0.017	0.267 ± 0.038	0.463 ± 0.0037	0.216 ± 0.0035	0.249 ± 0.038	0.433 ± 0.0093
HCINYGRIQFCA	0.388 ± 0.051	0.596 ± 0.028	0.71 ± 0.05	0.596 ± 0.013	0.714 ± 0.024	0.245 ± 0.012	0.253 ± 0.034	0.532 ± 0.06
HEVHATVPNQIM	0.697 ± 0.011	0.688 ± 0.026	0.7487 ± 0.0024	0.638 ± 0.01	0.736 ± 0.0095	0.649 ± 0.018	0.653 ± 0.02	0.7114 ± 0.0045
HFRFSRYIRWVL	0.237 ± 0.013	0.619 ± 0.08	0.7004 ± 0.0021	0.653 ± 0.02	0.746 ± 0.0079	0.139 ± 0.0018	0.151 ± 0.016	0.332 ± 0.0057
HFSCLLIILGFC	0.331 ± 0.026	0.275 ± 0.01	0.395 ± 0.078	0.268 ± 0.04	0.448 ± 0.0081	0.216 ± 0.005	0.267 ± 0.023	0.459 ± 0.092
HIVWVLQRAFRG	0.509 ± 0.039	0.511 ± 0.058	0.516 ± 0.0086	0.493 ± 0.021	0.504 ± 0.02	0.506 ± 0.038	0.488 ± 0.016	0.485 ± 0.018
HLCVLWVLLLCF	0.333 ± 0.011	0.286 ± 0.032	0.323 ± 0.0031	0.26 ± 0.025	0.383 ± 0.011	0.289 ± 0.015	0.246 ± 0.019	0.368 ± 0.024
HLFDMFFFLLHV	0.441 ± 0.027	0.514 ± 0.047	0.5932 ± 0.0025	0.488 ± 0.022	0.611 ± 0.0073	0.343 ± 0.0048	0.33 ± 0.022	0.504 ± 0.01
HLGAAVYVFSVL	0.477 ± 0.006	0.664 ± 0.086	0.707 ± 0.019	0.551 ± 0.0072	0.705 ± 0.016	0.399 ± 0.071	0.424 ± 0.0089	0.64 ± 0.03
HMSAISLIGALA	0.519 ± 0.029	0.595 ± 0.051	0.575 ± 0.04	0.436 ± 0.06	0.595 ± 0.011	0.392 ± 0.0086	0.434 ± 0.02	0.5673 ± 0.0013
HNLYCKILQLCV	0.446 ± 0.0057	0.419 ± 0.013	0.49 ± 0.12	0.304 ± 0.049	0.497 ± 0.04	0.242 ± 0.017	0.294 ± 0.025	0.449 ± 0.03
HPPRSLTLASSS	0.127 ± 0.029	0.696 ± 0.039	0.75 ± 0.014	0.661 ± 0.012	0.754 ± 0.025	0.65 ± 0.019	0.6427 ± 0.0058	0.7137 ± 0.00092
HRCLFPLEYLLI	0.473 ± 0.052	0.613 ± 0.055	0.72 ± 0.015	0.551 ± 0.021	0.701 ± 0.026	0.303 ± 0.022	0.344 ± 0.017	0.503 ± 0.018
HSLLLWLLVFFR	0.413 ± 0.036	0.441 ± 0.013	0.511 ± 0.01	0.388 ± 0.027	0.516 ± 0.0056	0.3609 ± 0.0034	0.367 ± 0.018	0.508 ± 0.012
HSVPPYPTPPPF	0.463 ± 0.002	0.668 ± 0.054	0.739 ± 0.0011	0.337 ± 0.041	0.616 ± 0.0097	0.302 ± 0.016	0.372 ± 0.016	0.586 ± 0.025
HVLLSSSASIVV	0.536 ± 0.058	0.623 ± 0.015	0.6613 ± 0.0046	0.534 ± 0.019	0.6449 ± 0.0028	0.534 ± 0.03	0.529 ± 0.026	0.63 ± 0.047
HYATLMSLRKVL	0.27 ± 0.047	0.6682 ± 0.0023	0.716 ± 0.036	0.64 ± 0.022	0.7219 ± 0.0017	0.128 ± 0.0077	0.137 ± 0.022	0.316 ± 0.032
IAYCDNGFLVVV	0.521 ± 0.077	0.636 ± 0.037	0.676 ± 0.028	0.548 ± 0.023	0.695 ± 0.019	0.539 ± 0.013	0.563 ± 0.012	0.652 ± 0.012
IDTSRAATLLPA	0.739 ± 0.012	0.675 ± 0.021	0.7136 ± 0.0016	0.606 ± 0.017	0.722 ± 0.011	0.611 ± 0.016	0.631 ± 0.028	0.7161 ± 0.0029
IFWAKRNLVRVT	0.363 ± 0.028	0.382 ± 0.0086	0.421 ± 0.011	0.307 ± 0.029	0.478 ± 0.0088	0.201 ± 0.0051	0.251 ± 0.025	0.402 ± 0.0096
IGKEKRMKVIQI	0.516 ± 0.065	0.65 ± 0.025	0.69 ± 0.022	0.624 ± 0.018	0.735 ± 0.019	0.433 ± 0.0078	0.477 ± 0.0096	0.615 ± 0.013
IKKKRNKKKMIM	0.505 ± 0.042	0.653 ± 0.093	0.727 ± 0.011	0.655 ± 0.026	0.731 ± 0.026	0.316 ± 0.035	0.322 ± 0.048	0.597 ± 0.013
IKPSVHILIRTL	0.21 ± 0.0069	0.544 ± 0.019	0.57 ± 0.017	0.446 ± 0.046	0.571 ± 0.02	0.118 ± 0.022	0.14 ± 0.0072	0.222 ± 0.0071
ILGDPHLALIFP	0.703 ± 0.022	0.689 ± 0.02	0.757 ± 0.012	0.657 ± 0.026	0.749 ± 0.018	0.652 ± 0.028	0.666 ± 0.021	0.7324 ± 0.0016
